Assay results taken from FireProtDB (doi:10.1093/protein/15.10.817).
Values joined by “and” are separate entries in the source; they are usually repeats but may differ in a detail not shown here. Identical values can stand only once.

B1: High mobility group protein B1, P63159 (parent)
chain: MGKGDPKKPRGKMSSYAFFVQTCREEHKKKHPDASVNFSEFSKKCSERWKTMSAKEKGKFEDMAKADKARYEREMKTYIPPKGETKKKFKDPNAPKRPPSAFFLFCSEYRPKIKGEHPGLSIGDVAKKLGEMWNNTAADDKQPYEKKAAKLKEKYEKDIAAYRAKGKPDAAKKGVVKAEKSKKKKEEEDDEEDEEDEEEEEEEEDEDEEEDDDDE

Variants of: B1
Settings: Rattus norvegicus, pH 7, Thermal, CD, HEPES 10 mM, structure 1HME, whole UniProt chain shown; for ddG of mutation (higher = less stable) / unfolding free energy: 20 °C

Variant: I122H
- ddG of mutation (higher = less stable) (NiSO4 1 mM): 0 kcal/mol
- unfolding free energy (NiSO4 1 mM): 2.7 kcal/mol
- ddG of mutation (higher = less stable): 1.23 kcal/mol
- unfolding free energy: 1.74 kcal/mol
- Tm (NiSO4 1 mM): 41.9 °C
- change of melting temperature, mutant - wild type (higher = more stable) (NiSO4 1 mM): 1.3 °C
- unfolding enthalpy (van 't Hoff) (NiSO4 1 mM): 34.2 kcal/mol
- Tm: 36.2 °C
- change of melting temperature, mutant - wild type (higher = more stable): -4.4 °C
- unfolding enthalpy (van 't Hoff): 33.6 kcal/mol

Variant: D139H
- ddG of mutation (higher = less stable) (NiSO4 1 mM): -0.97 kcal/mol
- unfolding free energy (NiSO4 1 mM): 3.67 kcal/mol
- ddG of mutation (higher = less stable): -0.27 kcal/mol
- unfolding free energy: 2.97 kcal/mol
- Tm (NiSO4 1 mM): 46.8 °C
- change of melting temperature, mutant - wild type (higher = more stable) (NiSO4 1 mM): 6.2 °C
- unfolding enthalpy (van 't Hoff) (NiSO4 1 mM): 41 kcal/mol
- Tm: 41.1 °C
- change of melting temperature, mutant - wild type (higher = more stable): 0.5 °C
- unfolding enthalpy (van 't Hoff): 38.3 kcal/mol

Variant: S121H
- ddG of mutation (higher = less stable) (NiSO4 1 mM): 1.5 kcal/mol
- unfolding free energy (NiSO4 1 mM): 1.2 kcal/mol
- ddG of mutation (higher = less stable): 1.85 kcal/mol
- unfolding free energy: 0.85 kcal/mol
- Tm (NiSO4 1 mM): 34.4 °C
- change of melting temperature, mutant - wild type (higher = more stable) (NiSO4 1 mM): -6.2 °C
- unfolding enthalpy (van 't Hoff) (NiSO4 1 mM): 31.4 kcal/mol
- Tm: 30.4 °C
- change of melting temperature, mutant - wild type (higher = more stable): -10.2 °C
- unfolding enthalpy (van 't Hoff): 28.2 kcal/mol

Variant: G123H
- ddG of mutation (higher = less stable) (NiSO4 1 mM): -0.47 kcal/mol
- unfolding free energy (NiSO4 1 mM): 3.17 kcal/mol
- ddG of mutation (higher = less stable): 0.34 kcal/mol
- unfolding free energy: 2.36 kcal/mol
- Tm (NiSO4 1 mM): 44.9 °C
- change of melting temperature, mutant - wild type (higher = more stable) (NiSO4 1 mM): 4.3 °C
- unfolding enthalpy (van 't Hoff) (NiSO4 1 mM): 36.8 kcal/mol

Variant: D140H
- ddG of mutation (higher = less stable) (NiSO4 1 mM): -0.95 kcal/mol
- unfolding free energy (NiSO4 1 mM): 3.65 kcal/mol
- Tm (NiSO4 1 mM): 46.8 °C
- change of melting temperature, mutant - wild type (higher = more stable) (NiSO4 1 mM): 6.2 °C
- unfolding enthalpy (van 't Hoff) (NiSO4 1 mM): 36.8 kcal/mol
- Tm: 38.2 °C
- change of melting temperature, mutant - wild type (higher = more stable): -2.4 °C
- unfolding enthalpy (van 't Hoff): 33 kcal/mol

Variant: N135H D140H
- unfolding free energy (NiSO4 1 mM): 1.8 kcal/mol and 2.46 kcal/mol
- ddG of mutation (higher = less stable): 1.3 kcal/mol and 1.2 kcal/mol
- unfolding free energy: 1.4 kcal/mol and 1.5 kcal/mol
- Tm: 34.3 °C and 35.3 °C
- change of melting temperature, mutant - wild type (higher = more stable): -6.3 °C and -5.3 °C
- unfolding enthalpy (van 't Hoff): 33.1 kcal/mol and 31.5 kcal/mol

Variant: N135H D139H
- unfolding free energy (NiSO4 1 mM): 1.74 kcal/mol and 4.04 kcal/mol and 4.32 kcal/mol
- unfolding free energy: 1.69 kcal/mol and 2.42 kcal/mol and 1.67 kcal/mol
- Tm: 39 °C and 36.3 °C
- unfolding enthalpy (van 't Hoff): 35.8 kcal/mol and 32.3 kcal/mol
